From US20210130485A1

Target: FcγRs
Assay: cell-based or functional assay

pSyk levels in primary human microglial cells on polypeptide-coated plates (pSyk sandwich immunoassay): 3 fold
Substance: cis-LALA modified Fc polypeptide dimer fused to an anti-BACE1 Fab (bispecific antibody)
